Columns and labels:
Experiment in all cases: yeast two-hybrid, liquid β-galactosidase quantification
[1] = target: cycD3;1 in the GAL4 DNA-binding domain vector (yeast two-hybrid fusion / bait) (Arabidopsis thaliana)
[2] = target: PCNAAt in the GAL4 DNA-binding domain vector (yeast two-hybrid fusion) (Arabidopsis thaliana)
[3] = target: cycB1;1 in the GAL4 DNA-binding domain vector (yeast two-hybrid fusion) (Arabidopsis thaliana)
[4] = target: ATMAP2 in the GAL4 DNA-binding domain vector (yeast two-hybrid fusion) (Arabidopsis thaliana)
[5] = target: cycD2;1 in the GAL4 DNA-binding domain vector (yeast two-hybrid fusion) (Arabidopsis thaliana)
[6] = target: cycB2;2 in the GAL4 DNA-binding domain vector (yeast two-hybrid fusion) (Arabidopsis thaliana)
[7] = target: Cdc2b in the GAL4 DNA-binding domain vector (yeast two-hybrid fusion) (Arabidopsis thaliana)
[8] = target: cycA2;2 in the GAL4 DNA-binding domain vector (yeast two-hybrid fusion) (Arabidopsis thaliana)
[9] = target: cycD1;1 in the GAL4 DNA-binding domain vector (yeast two-hybrid fusion) (Arabidopsis thaliana)
[10] = target: DB-vector alone (GAL4 DNA-binding domain without insert), control (UniProt P04386)
[11] = target: Cdc2a in the GAL4 DNA-binding domain vector (yeast two-hybrid fusion) (Arabidopsis thaliana)

Quantification [1]: 22.7
Quantification [2]: 0
Quantification [3]: 0.06
Quantification [4]: 0
Quantification [5]: 14.8
Quantification [6]: 0.05
Quantification [7]: 0
Quantification [8]: 0.03
Quantification [9]: 3.13
Quantification [10]: 0
Quantification [11]: 2.65
Substance: ICK1 in a GAL4-activation domain vector (yeast two-hybrid fusion) (from UniProt P04386 768-881)
